The values that follow come from patent US20050037969A1.

The target of this assay is GST-DLG1 fusion protein (PDZ domains 1-2) (human) (UniProt Q12959). Briefly: variant of the G assay, 100 uM 8-mer against 20 uM biotin-labeled AA2L.

“eight amino acid CLASP-2 peptide MTSSSSVV (unlabeled)” displayed a percent inhibition at 100 uM of over 50%.
